# From the supplement of paper PMC9112550, “Optimization of the antimicrobial peptide Bac7 by deep mutational scanning” (BMC Biology, 2022)
# System: Escherichia coli TOP10
# Experiment: shrunken log2 fold change of peptide-encoding DNA abundance (4.5 h post-induction vs induction); higher = less antimicrobial activity (less host growth inhibition)
# Settings: time post-induction: 4.5 h; library: site-saturation at positions 5, 18, 19, 20
# 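Further: peptides expressed intracellularly from a pBAD plasmid library in pooled LB shake-flask culture, induced with 0.3% L-arabinose, DNA abundance read by NGS, three biological replicates, DESeq2 with apeglm shrinkage.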
row,Sequence,shrunken log2 fold change
1,RRIRERPPRLPRPRPRPILIPRP,-0.0809
2,RRIRIRPPRLPRPRPRPGTHPRP,-0.431
3,RRIRPRPPRLPRPRPRPFYFPRP,-0.387
4,RRIRARPPRLPRPRPRPHYQPRP,-0.459
5,RRIRNRPPRLPRPRPRPHLDPRP,0.118
6,RRIRFRPPRLPRPRPRPHNWPRP,-0.122
7,RRIRGRPPRLPRPRPRPLMAPRP,1.39
8,RRIRMRPPRLPRPRPRPNPKPRP,0.023
9,RRIRCRPPRLPRPRPRPSWPPRP,-0.155
10,RRIRFRPPRLPRPRPRPQNMPRP,-0.797
11,RRIRQRPPRLPRPRPRPGPSPRP,0.242
12,RRIRNRPPRLPRPRPRPANVPRP,0.0585
13,RRIRVRPPRLPRPRPRPRAFPRP,0.294
14,RRIRFRPPRLPRPRPRPCFNPRP,-0.385
15,RRIRRRPPRLPRPRPRPPMHPRP,0.693
16,RRIRVRPPRLPRPRPRPLLEPRP,0.0931
17,RRIRNRPPRLPRPRPRPTQFPRP,0.138
18,RRIRFRPPRLPRPRPRPRQYPRP,-0.465
19,RRIRYRPPRLPRPRPRPDEGPRP,-0.226
20,RRIRPRPPRLPRPRPRPLCYPRP,-0.488
21,RRIRFRPPRLPRPRPRPGNYPRP,-0.401

row,Sequence,shrunken log2 fold change
1,RRIRDRPPRLPRPRPRPSNDPRP,0.0978
2,RRIRCRPPRLPRPRPRPIGQPRP,0.0567
3,RRIRFRPPRLPRPRPRPSCMPRP,-0.831
4,RRIRGRPPRLPRPRPRPHKNPRP,0.535
5,RRIRTRPPRLPRPRPRPRRSPRP,0.318
6,RRIRYRPPRLPRPRPRPLVQPRP,-0.49
7,RRIRVRPPRLPRPRPRPDVNPRP,-0.172
8,RRIRPRPPRLPRPRPRPMYWPRP,-0.0489
9,RRIRIRPPRLPRPRPRPYDTPRP,-0.0277
10,RRIRSRPPRLPRPRPRPSILPRP,-0.235
11,RRIRHRPPRLPRPRPRPFGKPRP,0.0294
12,RRIRVRPPRLPRPRPRPLQNPRP,0.0527
13,RRIRARPPRLPRPRPRPQFVPRP,-0.0892
14,RRIRQRPPRLPRPRPRPRLFPRP,0.701
15,RRIRFRPPRLPRPRPRPISTPRP,-0.24
16,RRIRYRPPRLPRPRPRPIRHPRP,0.0879
17,RRIRVRPPRLPRPRPRPLFFPRP,-0.121
18,RRIRCRPPRLPRPRPRPHVKPRP,-0.284
19,RRIRFRPPRLPRPRPRPMASPRP,0.037
20,RRIRWRPPRLPRPRPRPYLLPRP,-0.508
21,RRIRMRPPRLPRPRPRPRQWPRP,0.0789

row,Sequence,shrunken log2 fold change
1,RRIRYRPPRLPRPRPRPINQPRP,-0.113
2,RRIRRRPPRLPRPRPRPHCRPRP,0.103
3,RRIRLRPPRLPRPRPRPCETPRP,-0.155
4,RRIRDRPPRLPRPRPRPNNAPRP,-0.204
5,RRIRCRPPRLPRPRPRPCRNPRP,-0.154
6,RRIRGRPPRLPRPRPRPFCAPRP,0.836
7,RRIRERPPRLPRPRPRPCILPRP,-0.425
8,RRIRCRPPRLPRPRPRPRSTPRP,0.0137
9,RRIRGRPPRLPRPRPRPNACPRP,0.212
10,RRIRCRPPRLPRPRPRPTVHPRP,-0.413
11,RRIRQRPPRLPRPRPRPAYPPRP,-0.167
12,RRIRMRPPRLPRPRPRPNFAPRP,0.318
13,RRIRVRPPRLPRPRPRPMCLPRP,-0.0244
14,RRIRYRPPRLPRPRPRPPEEPRP,0.0153
15,RRIRFRPPRLPRPRPRPISWPRP,-0.132
16,RRIRCRPPRLPRPRPRPYITPRP,-1.44
17,RRIRMRPPRLPRPRPRPVVFPRP,2.6
18,RRIRYRPPRLPRPRPRPRGLPRP,-0.0424
19,RRIRVRPPRLPRPRPRPGIKPRP,0.174
20,RRIRPRPPRLPRPRPRPGDIPRP,-0.027
